The record followed here is US20140348785A1 (published 2014).

This test concerns the target soluble gp41 MPER peptide RRR-(656-683)-RRR. The test is described as follows: kinetic binding (ka/kd); mean of three runs.

B1: 10E8 monoclonal antibody (full-length IgG) (antibody, V domains shown)
VH: EVQLVESGGGLVKPGGSLRLSCSASGFDFDNAWMTWVRQPPGKGLEWVGRITGPGEGWSVDYAAPVEGRFTISRLNSINFLYLEMNNLRMEDSGLYFCARTGKYYDFWSGYPPGEEYFQDWGRGTLVTVSS
VL: SYELTQETGVSVALGRTVTITCRGDSLRSHYASWYQKKPGQAPILLFYGKNNRPSGVPDRFSGSASGNRASLTISGAQAEDDAEYYCSSRDKSGSRLSVFGGGTKLTVL
B1 showed a Kd of 6.08 nM. This lies in the single-digit nanomolar range.
